# Measured values reported in the supplement of paper PMC10724198.
# ± gives the standard deviation of the averaged measurements.
# Key:
# Saccharomyces cerevisiae [1] = assay: protein stability index of tFT-peptide fusion (C-terminal peptide) (PSI (0-1 scale)); higher = more stable (slower turnover); settings: genetic background: wild type; temperature: 30 C
# Saccharomyces cerevisiae [2] = assay: as above
# Procedure: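 MPS profiling in S. cerevisiae of the tFT-X12 degron library: putative degron peptides plus stable controls, 12 aa, fused to the C-terminus of a sfGFP-mCherry timer. Cells are FACS-sorted into 8 mCherry/sfGFP bins and deep-sequenced. PSI runs from 0 (unstable) to 1 (stable). Backgrounds are wild type, das1Δ and doa10Δ at 30 °C, and wild type, das1Δ, cdc34-1 and cdc53-1 at 37 °C; 2-3 technical replicates each.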
# [3] = genetic background: cdc34-1, temperature: 37 C
# [4] = genetic background: cdc53-1, temperature: 37 C
# [5] = genetic background: das1 deletion, temperature: 30 C
# [6] = genetic background: das1 deletion, temperature: 37 C
# [7] = genetic background: doa10 deletion, temperature: 30 C
# [8] = genetic background: wild type, temperature: 30 C
# [9] = genetic background: wild type, temperature: 37 C
# 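Also: PSI is a weighted mean of sequencing reads over stability bins, variants kept only with over 10 reads, mCherry proximal and sfGFP distal, peptide attached via GGGS linker.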
Sequence,protein stability index (Saccharomyces cerevisiae [1]),protein stability index (Saccharomyces cerevisiae [2]; [3]),protein stability index (Saccharomyces cerevisiae [2]; [4]),protein stability index (Saccharomyces cerevisiae [2]; [5]),protein stability index (Saccharomyces cerevisiae [2]; [6]),protein stability index (Saccharomyces cerevisiae [2]; [7]),protein stability index (Saccharomyces cerevisiae [2]; [8]),protein stability index (Saccharomyces cerevisiae [2]; [9])
LGDPPCRMIVVR,0.466 ± 0.033,0.532 ± 0.026,0.58581 ± 4.2e-05,0.353 ± 0.038,0.5869 ± 0.0044,0.339 ± 0.011,0.376 ± 0.026,0.558 ± 0.0075
LGGVEDRWRTAT,0.365 ± 0.0037,0.653 ± 0.05,0.704 ± 0.0094,0.693 ± 0.032,0.7227 ± 0.0051,0.261 ± 0.016,0.296 ± 0.025,0.534 ± 0.008
LGRLDYKRMKRA,0.533 ± 0.076,0.7464 ± 0.0014,0.748 ± 0.024,0.641 ± 0.033,0.7434 ± 0.0068,0.477 ± 0.017,0.51 ± 0.021,0.618 ± 0.046
LGSYIFVVVIYF,0.283 ± 0.15,0.152 ± 0.011,0.228 ± 0.0032,0.168 ± 0.032,0.291 ± 0.0044,0.141 ± 0.0079,0.143 ± 0.033,0.253 ± 0.0056
LGSYVWVFVYFW,0.187 ± 0.051,0.159 ± 0.022,0.258 ± 0.0054,0.155 ± 0.039,0.323 ± 0.01,0.148 ± 0.0054,0.151 ± 0.028,0.267 ± 0.025
LHIHGAGIVCAG,0.467 ± 0.028,0.549 ± 0.026,0.584 ± 0.029,0.368 ± 0.032,0.5788 ± 0.001,0.318 ± 0.0044,0.374 ± 0.029,0.5491 ± 0.0022
LICRFLFFVCVG,0.394 ± 0.04,0.412 ± 0.024,0.451 ± 0.0053,0.377 ± 0.023,0.507 ± 0.0068,0.277 ± 0.011,0.278 ± 0.02,0.441 ± 0.03
LILLTFTLRVPV,0.361 ± 0.034,0.192 ± 0.0027,0.381 ± 0.046,0.233 ± 0.02,0.4028 ± 0.0024,0.2056 ± 0.001,0.227 ± 0.026,0.362 ± 0.018
LLCLCSLPVFAS,0.356 ± 0.016,0.317 ± 0.014,0.319 ± 0.029,0.26 ± 0.046,0.4118 ± 0.0028,0.223 ± 0.009,0.27 ± 0.018,0.368 ± 0.0076
LLFLLSPFNFAV,0.328 ± 0.07,0.651 ± 0.035,0.726 ± 0.0084,0.63 ± 0.022,0.737 ± 0.0093,0.2535 ± 0.0025,0.303 ± 0.017,0.524 ± 0.03
LLFTFSLSFFFR,0.445 ± 0.014,0.405 ± 0.036,0.467 ± 0.0087,0.445 ± 0.048,0.438 ± 0.0076,0.458 ± 0.018,0.42 ± 0.022,0.45 ± 0.022
LLLHFMFSIFWF,0.378 ± 0.023,0.3811 ± 0.00039,0.375 ± 0.032,0.327 ± 0.034,0.4583 ± 0.0021,0.378 ± 0.011,0.324 ± 0.016,0.42 ± 0.011
LLMWVLFDCHYS,0.396 ± 0.012,0.39 ± 0.017,0.542 ± 0.034,0.318 ± 0.035,0.552 ± 0.011,0.306 ± 0.01,0.322 ± 0.023,0.535 ± 0.013
LLPTSVFLPSLF,0.489 ± 0.0069,0.6907 ± 0.0038,0.7726 ± 0.0059,0.663 ± 0.012,0.768 ± 0.014,0.282 ± 0.0082,0.331 ± 0.021,0.578 ± 0.018
LLRIFLPLLYLL,0.194 ± 0.019,0.203 ± 0.062,0.199 ± 0.011,0.329 ± 0.037,0.387 ± 0.016,0.218 ± 0.0076,0.131 ± 0.021,0.2 ± 0.00044
LLSFYFVLAYMV,0.28 ± 0.056,0.357 ± 0.034,0.393 ± 0.026,0.32 ± 0.035,0.4765 ± 0.00078,0.197 ± 0.024,0.179 ± 0.02,0.3 ± 0.0065
LLSYMVSLVVYL,0.295 ± 0.0062,0.127 ± 0.04,0.231 ± 0.03,0.175 ± 0.032,0.338 ± 0.024,0.16 ± 0.028,0.166 ± 0.031,0.291 ± 0.004
LLYYQVFKTRRL,0.406 ± 0.25,0.674 ± 0.021,0.686 ± 0.037,0.63 ± 0.026,0.696 ± 0.034,0.3565 ± 0.0012,0.384 ± 0.022,0.5958 ± 0.0036
LNQRGKRKYLIM,0.452 ± 0.015,0.711 ± 0.058,0.751 ± 0.054,0.656 ± 0.038,0.723 ± 0.016,0.372 ± 0.012,0.412 ± 0.024,0.561 ± 0.034
LNTVALIRIVVS,0.236 ± 0.006,0.0601 ± 0.033,0.132 ± 0.015,0.18 ± 0.021,0.234 ± 0.0055,0.125 ± 0.015,0.137 ± 0.036,0.19 ± 0.008
LPILFPAALRLY,0.44 ± 0.02,0.552 ± 0.0097,0.577 ± 0.028,0.521 ± 0.025,0.604 ± 0.01,0.267 ± 0.013,0.285 ± 0.026,0.455 ± 0.029
LPPPYSPRLFHN,0.241 ± 0.1,0.552 ± 0.065,0.7103 ± 0.0065,0.699 ± 0.014,0.755 ± 0.022,0.146 ± 0.016,0.166 ± 0.016,0.265 ± 0.01
LPTVSRPGALIC,0.253 ± 0.013,0.562 ± 0.016,0.689 ± 0.032,0.626 ± 0.033,0.69 ± 0.011,0.144 ± 0.0049,0.192 ± 0.02,0.34 ± 0.038
LRCRAATSRTVS,0.504 ± 0.04,0.69 ± 0.029,0.738 ± 0.015,0.6731 ± 0.002,0.726 ± 0.03,0.391 ± 0.015,0.446 ± 0.025,0.643 ± 0.0087
LRNYKCLRLLIC,0.0682 ± 0.096,0.293 ± 0.009,0.476 ± 0.0082,0.394 ± 0.028,0.545 ± 0.022,0.0736 ± 0.0054,0.0688 ± 0.012,0.0753 ± 0.012
LRPTFLLLFRPL,0.493 ± 0.096,0.292 ± 0.022,0.283 ± 0.037,0.377 ± 0.032,0.474 ± 0.011,0.618 ± 0.004,0.407 ± 0.017,0.4302 ± 0.0023
LRSLLIIYLLIF,0.279 ± 0.039,0.2561 ± 0.0023,0.292 ± 0.025,0.253 ± 0.038,0.404 ± 0.0084,0.203 ± 0.0043,0.192 ± 0.0044,0.31 ± 0.012
LSACYSRYVFVS,0.135 ± 0.0089,0.398 ± 0.039,0.553 ± 0.038,0.472 ± 0.016,0.60517 ± 0.00057,0.0584 ± 0.017,0.093 ± 0.023,0.115 ± 0.012
LSASFYFVFFSN,0.292 ± 0.043,0.56 ± 0.013,0.6731 ± 0.0018,0.506 ± 0.023,0.6287 ± 0.006,0.155 ± 0.032,0.188 ± 0.0085,0.383 ± 0.021
LSILLFVQFFPP,0.305 ± 0.0053,0.317 ± 0.023,0.371 ± 0.0032,0.27 ± 0.021,0.4113 ± 0.00046,0.24 ± 0.0013,0.253 ± 0.012,0.384 ± 0.0082
